According to the DeepSol protein solubility set:

Test: soluble on expression in E. coli; label from the status in PepcDB or PDB records

Row | Sequence | soluble on expression in E. coli
1 | MKVSEKTYLSIEEIISLPTVSSTNISDDGKNVAFVKRTANWEDNTYRNHVWIYEKDKGKSYPLTTGDIDSIHPLWSPDSKSIAYLSSGGDGDMKNQIFVKSLDDYSKVKITDEKEGISNFKWDPTGKGFYYITQSKECEEIKKRKELYGDFQHVGKEHQNNCLCYIEMEKVIQNDKEEREINGVYQLTGGKDFYIHGFDISDNGKKVVCMATPSLNDHMNGDLYILDVEARELQQMNVDKLLGGSACFSPEGNKICYSASIREKEYYRNHIQESTLEIYDMNTGEVIQPLTNFDSMVMPLQWTAKGILIRWQDKTNYFIGLLAEDGTVETLREKVDGFIMDASITRDGNHITYNKAITNETFEIYLDDKKITNENSLFEGKLKSNREIISWRSSDGLEIEGVLSTPVEFDANKKYPLLVVIHGGPAWASFPIFSNCFNEKYPIEQFVEKGFIVLEPNYRGSSGYGNEFLKANYRKQGLADYDDVISGVDELVEKGMVDKDRVGVMGWSNGGYISAFCSTFSSRFKAISVGGGITNWSTHYVNTDIPYFIRMYLGNTPWNDPDIYKRTSPMTYIKSACTPTLIQHGEKDARIPITNAYELHQGLKDMEVDTELIIFKGMAYSSDQPGVHVAIMKQNLMWFSHYILGESMEDFSTI | not soluble
2 | MNYHQYYPIDVVNGPGTRCTLFVSGCVHQCKGCYNQSTWSLSSGHRYTQEMEDKIIADLKDTRIKRRGLSLSGGDPMHPANLSAVLQLVQRVKTECPDKDIWLWTGYTLAELDDSQQALLPYIDVLVDGKFIQEQADPGLEWRGSANQVIHRFTLLEHHHHHH | not soluble
3 | MSLAPCGLVPSARQLEWYNREMIAFFHFGINTFEEYVNEGDGKASTAIFNPTALDCRQWMQTLKAAGIPAAILTAKHADGFCLWPSKYTDYSVKNAAWKNGKGDVVREFVDACEEYGLKAGIYLGPHDRHEHLSPLYTTERYKEYYAHQLGELMSDYGKIWETWWDGAGADELTTPVYRHWYKIVREKQPDCVIFGTKNSYPFADVRWMGNEAGEAGDPCWATTDSVAIRDEAQYYKGLNEGMLDGDAYIPAETDVSIRPSWFYHAEEDSRVKSVRELWDIYCTSVGRNSVLLLNFPPDRRGLIHSTDSLHAALLKQGIDETFSTNLLRGAKVKATNVRGAKYSPEKMLDNEKNTYFAGKDGEVKADIIFTLPKTIEFDCLMIEEVIELGHRTTKWSVEYTVDGKNWITIPEATDKQAIGHKWIVRLAPVKAKQVRLRIQDGKACPAIHTFGVYKQSPVFKEGHHHHHH | soluble
4 | MGLTFENNTIENFDVQATFGMMNFLEVVAINERDGENNVTEEVREQRVTVYSSKLNDQVEIVIDPDYDVSGINYDDEIELTGNVTARGWLYTFKGYNDNVQTEQAFKVRAAGIKKVGAVKQTQAPQPKEKQENKQ | not soluble
5 | MPMFAWKGKRDKSMKVSVVIPVHNEASTLSKVLAEVKKLEPYEIIIVDNGSTDGTKEIALQHHCRVIYYNHSLGNDVGRAIGAREAKGEIVLFLDGDIVMKSEELYPFIKGIQQGHQIVLNNLTWSVYLKVRPHYTTVGKYMLNRYLNKKEFVVGSLIAIPHAISREVIEKLGWWNLADPALFQAMAMSRGVDISDMASVDVIYTNKVRPVHTGTSPDSPYPKATSRIMGDHLRALQYITETYGKRGGFSEGNRDREFIGKYKPVVLKKEKAKYSAIIPVSEEKTTIRSVIQEVKKAGVDEIIIVANGADIETIKQVNLENVIVVEVTKTLGNNVARAIGAMHATAEICLFVDGDYAIPAKKLVPFLRAIEDGSDMALNDLQCLLDIFHPADPISMGKYFVNLVAKRPDLWNNSLTAVPHAIRKKVIEKIGYDSLIIPPLAQMKAILEGFSITTVEFVDVIKTNRVRPEQHEFVNGRISAFDRIFGDQLEAIAYLLQHTDERGGFTDGDRDREIIQQLRREEENTNEY | not soluble
6 | MTPSPEASEGPCVSKLRNEPLGALTPYVGVVDGPEVKKSKKIHGGDSAILGTYKMQSRFNRGVLLMVNIMDYPDQNRRRIGAEKDSKSLIHLFQELNFTIFPYGNVNQDQFFKLLTMVTSSSYVQNTECFVMVLMTHGNSVEGKEKVEFRDGSVVDMQKIKDHFQTAKCPYLVNKPKVLMFPFARGDEYDLGHPKNQGNLMEPVYTAQEEKWPDTQTEGIPSPSTNVPSLADTLVCYANTPGYVTHRDLDTGSWYIQKFCQVMADHAHDTDLEDILKKTSEAVGNKRTKKGSMQTGAYDNLGFNKKLYFNPGFFNE | soluble
7 | ISEFSDWQETLLEHLTQWVEAEIERDIAVDSHEESQRLLEATFNSPETFIGILDADGTLIRANETALGFIDADAADVCGEPFCETPWWNHDEAVANRCREAVERTRAGETVRFEAEHVGADGQRISTSVVARPVTAD | not soluble
8 | MADTVKLFPENLVTYKLLGEPDGPHYAHYDLVGGRLVVSKKCVSEAPVKKDAISV | not soluble
